Source: paper doi:10.1101/2025.03.17.643790
pKd: −log10 of the molar value.

Target: fibrillar amyloid-beta (UniProt P05067)
Experiment: SPR

Sequence of UniProt P05067 (P05067 672-713): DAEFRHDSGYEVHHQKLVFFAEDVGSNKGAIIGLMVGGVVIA

pKd: 8.05
Substance: Galectin-3 (from UniProt P17931 1-250) (natural protein)
